Source: patent publication US11312760 (NEWSOARA BIOPHARMA, dated 2022)

Biological target: authentic SARS-CoV-2 (live virus)
Experiment: cell-based or functional assay

Binder	EC50 of neutralization of live virus in Vero-E6 cells [µg/mL]
Antibody 15A7 (recombinantly expressed in IgG1 form) (antibody, V domains shown) VH: QVQLVQSGAEVKKPGASVKVSCKASGYTFTSYDINWVRQASGQGLEWMGWMNPNSANPGYAQKFQGRVTMTRNTSISTAFMELSSLRSDDTAVYYCARARVTIHYDILTGYYSNAFDIWGQGTMVAVSS VL: DIQMTQSPSSLSASVGDRVTITCRASQTISSYLNWYQQKPGKAPKLLIYAASSLQSGVPSRFSGSGSGADFTLTISSLQPEDFATYYCQQSYTTFMYTFGQGTMLEIK	0.61
Antibody 37G2 (recombinantly expressed in IgG1 form) (antibody, V domains shown) VH: QVQLVQSGAEVKKPGSSVKVSCKASGGTFSSYAITWVRQAPGQGLEWMGGIIPIFGTANFAQKFQGRVTITADESTSTAYMELSSLRSEDTAVYYCAHLGGFADPFDYWGQGTLVTVSS VL: EIVLTQSPATLSLSPGERATLSCRASQSVSNYLAWYQQKAGQAPRVLIYDAFNRATGIPARFSGSGSGTDFTLTISSLEPEDFAVYYCQQRSNWPPRITFGQGTRLEIK	1.37
Antibody 31C2 (recombinantly expressed in IgG1 form) (antibody, V domains shown) VH: QVQLVQSGAEVKKPGSSVKVSCKASGGTFSSYAISWVRQAPGQGLEWMGGIIPIFGTTNYAQKFQGRVTITADESTSTAYMELNSLRSEDTAVYYCAGRSAYGDKGYYFDYWGQGTLVTVSS VL: EIVLTQSPATLSLSPGERATLSCRASQSVSNFLAWYQQKPGQAPRLLIYDASNRATGIPARFSGSGSGTDFTLTISSLQPEDFAVYYCQQRSNWPPQETFGQGTKVEIK	0.57
